Assay in all cases: cell-based or functional assay
In experiment [1] the target is AA-SR-121 (SR-121), IL10RA ECD-CD28 TM-CD3z ICD.
Experiment [2] has as its target AA-SR-106 (SR-106), IL10RA ECD-IL10RA TM-CD3z ICD.
The target of experiment [3] is AA-SR-107 (SR-107), IL10RB ECD-IL10RB TM-CD3z ICD.
In experiment [4] the target is AA-SR-122 (SR-122), IL10RB ECD-CD28 TM-CD3z ICD.
In experiment [5] the target is AA-SR-111 (SR-111), PD1 ECD-PD1 TM-CD3z ICD.
Experiment [6] deals with AA-SR-126 (SR-126), PD1 ECD-CD28 TM-CD3z ICD.
The target of experiment [7] is AA-TGFB-007 (TGFB-007), TGF-BR2 ECD-TGFBR2 TM-TGFBR2 truncated ICD (Homo sapiens (Human)) (UniProt P37173).
Experiment [8] addresses AA-TGFB-021 (TGFB-021), TGF-BR2 ECD-CD28 TM-CD3z ICD.
In experiment [9] the target is AA-SR-124 (SR-124), GP130 ECD-CD28 TM-CD3z ICD.
In experiment [10] the target is AA-SR-109 (SR-109), GP130 ECD-GP130 TM-CD3z ICD.
Chain of AA-SR-109 (SR-109), GP130 ECD-GP130 TM-CD3z ICD (chain, as listed by the source limits assumed, form in doubt): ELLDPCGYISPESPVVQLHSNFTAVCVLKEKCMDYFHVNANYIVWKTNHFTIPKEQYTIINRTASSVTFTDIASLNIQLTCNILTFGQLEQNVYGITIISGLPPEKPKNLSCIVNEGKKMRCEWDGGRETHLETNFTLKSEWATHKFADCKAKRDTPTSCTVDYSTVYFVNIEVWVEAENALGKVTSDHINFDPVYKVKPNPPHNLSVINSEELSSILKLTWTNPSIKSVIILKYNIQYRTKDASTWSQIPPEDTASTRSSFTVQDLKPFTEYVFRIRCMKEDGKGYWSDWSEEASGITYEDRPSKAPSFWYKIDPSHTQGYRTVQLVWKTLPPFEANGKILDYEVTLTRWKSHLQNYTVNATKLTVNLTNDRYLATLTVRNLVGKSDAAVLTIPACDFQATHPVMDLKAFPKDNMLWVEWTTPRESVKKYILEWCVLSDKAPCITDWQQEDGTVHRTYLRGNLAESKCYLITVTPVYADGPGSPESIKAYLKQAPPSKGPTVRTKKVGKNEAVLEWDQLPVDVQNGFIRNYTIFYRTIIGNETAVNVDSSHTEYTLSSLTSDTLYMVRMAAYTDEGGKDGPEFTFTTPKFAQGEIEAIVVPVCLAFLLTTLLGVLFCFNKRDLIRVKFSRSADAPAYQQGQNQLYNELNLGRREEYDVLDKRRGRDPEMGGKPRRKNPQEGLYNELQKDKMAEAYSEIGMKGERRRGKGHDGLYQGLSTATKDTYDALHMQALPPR

Chain of AA-SR-124 (SR-124), GP130 ECD-CD28 TM-CD3z ICD (chain, as listed by the source limits assumed, form in doubt): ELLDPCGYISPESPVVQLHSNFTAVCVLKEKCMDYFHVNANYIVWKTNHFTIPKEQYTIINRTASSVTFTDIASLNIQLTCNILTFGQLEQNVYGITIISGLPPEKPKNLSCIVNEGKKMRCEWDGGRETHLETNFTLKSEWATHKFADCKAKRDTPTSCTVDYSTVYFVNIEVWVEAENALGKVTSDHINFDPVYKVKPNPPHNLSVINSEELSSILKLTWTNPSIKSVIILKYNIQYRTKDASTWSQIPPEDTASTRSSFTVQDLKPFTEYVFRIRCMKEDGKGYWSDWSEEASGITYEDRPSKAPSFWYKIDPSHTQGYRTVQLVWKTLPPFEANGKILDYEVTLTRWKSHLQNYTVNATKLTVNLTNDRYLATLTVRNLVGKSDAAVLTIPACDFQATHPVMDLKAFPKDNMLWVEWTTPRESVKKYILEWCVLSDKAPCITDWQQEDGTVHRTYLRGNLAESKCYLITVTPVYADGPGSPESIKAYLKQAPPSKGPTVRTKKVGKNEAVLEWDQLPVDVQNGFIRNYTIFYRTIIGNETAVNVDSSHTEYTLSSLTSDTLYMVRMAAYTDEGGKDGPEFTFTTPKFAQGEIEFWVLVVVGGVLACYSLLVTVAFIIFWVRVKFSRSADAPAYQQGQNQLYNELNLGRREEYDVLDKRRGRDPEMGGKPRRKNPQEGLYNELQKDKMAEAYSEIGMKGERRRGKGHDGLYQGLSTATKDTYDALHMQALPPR
Chain of AA-TGFB-021 (TGFB-021), TGF-BR2 ECD-CD28 TM-CD3z ICD (chain, as listed by the source limits assumed, form in doubt): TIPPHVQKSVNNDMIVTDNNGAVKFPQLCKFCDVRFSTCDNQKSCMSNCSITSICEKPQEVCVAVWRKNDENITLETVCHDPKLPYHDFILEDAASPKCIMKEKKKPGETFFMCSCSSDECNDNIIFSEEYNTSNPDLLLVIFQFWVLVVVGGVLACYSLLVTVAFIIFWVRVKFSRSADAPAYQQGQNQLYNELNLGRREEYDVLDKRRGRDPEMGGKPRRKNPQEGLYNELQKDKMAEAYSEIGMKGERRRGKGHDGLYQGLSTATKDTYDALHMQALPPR
Chain of AA-TGFB-007 (TGFB-007), TGF-BR2 ECD-TGFBR2 TM-TGFBR2 truncated ICD (Homo sapiens (Human)) (P37173 23-199, form in doubt): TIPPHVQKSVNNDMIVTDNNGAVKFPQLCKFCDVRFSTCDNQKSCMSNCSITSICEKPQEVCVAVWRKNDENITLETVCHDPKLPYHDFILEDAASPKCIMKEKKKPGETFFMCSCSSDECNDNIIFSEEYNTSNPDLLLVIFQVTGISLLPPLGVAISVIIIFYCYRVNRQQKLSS
Chain of AA-SR-126 (SR-126), PD1 ECD-CD28 TM-CD3z ICD (chain, as listed by the source limits assumed, form in doubt): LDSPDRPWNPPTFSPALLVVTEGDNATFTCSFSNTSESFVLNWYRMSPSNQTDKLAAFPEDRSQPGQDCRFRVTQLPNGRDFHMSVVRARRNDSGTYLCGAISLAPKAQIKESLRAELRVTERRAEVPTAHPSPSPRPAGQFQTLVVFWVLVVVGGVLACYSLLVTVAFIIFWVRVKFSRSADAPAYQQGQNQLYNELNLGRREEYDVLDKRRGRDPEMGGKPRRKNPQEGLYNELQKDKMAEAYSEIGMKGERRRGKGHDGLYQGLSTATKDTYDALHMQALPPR
Chain of AA-SR-121 (SR-121), IL10RA ECD-CD28 TM-CD3z ICD (chain, as listed by the source limits assumed, form in doubt): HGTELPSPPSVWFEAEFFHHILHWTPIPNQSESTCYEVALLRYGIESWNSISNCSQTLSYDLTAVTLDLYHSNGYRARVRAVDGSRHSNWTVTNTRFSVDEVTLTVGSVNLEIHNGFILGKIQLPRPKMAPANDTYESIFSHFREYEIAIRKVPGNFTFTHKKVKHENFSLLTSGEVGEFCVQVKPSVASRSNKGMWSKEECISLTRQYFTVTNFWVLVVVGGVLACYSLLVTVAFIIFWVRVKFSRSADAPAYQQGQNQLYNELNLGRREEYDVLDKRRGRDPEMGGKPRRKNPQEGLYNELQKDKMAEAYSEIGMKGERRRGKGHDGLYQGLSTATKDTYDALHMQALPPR
Chain of AA-SR-107 (SR-107), IL10RB ECD-IL10RB TM-CD3z ICD (chain, as listed by the source limits assumed, form in doubt): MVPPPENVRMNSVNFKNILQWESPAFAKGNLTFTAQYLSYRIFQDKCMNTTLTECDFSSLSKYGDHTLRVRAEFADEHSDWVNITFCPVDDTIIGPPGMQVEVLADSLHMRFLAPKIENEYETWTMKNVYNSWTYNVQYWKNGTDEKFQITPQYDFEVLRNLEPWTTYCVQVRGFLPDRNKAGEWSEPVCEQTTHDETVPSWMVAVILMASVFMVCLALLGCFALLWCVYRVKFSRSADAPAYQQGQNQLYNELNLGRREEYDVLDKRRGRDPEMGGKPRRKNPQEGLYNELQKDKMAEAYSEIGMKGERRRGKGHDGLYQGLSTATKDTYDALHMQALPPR
Chain of AA-SR-106 (SR-106), IL10RA ECD-IL10RA TM-CD3z ICD (chain, as listed by the source limits assumed, form in doubt): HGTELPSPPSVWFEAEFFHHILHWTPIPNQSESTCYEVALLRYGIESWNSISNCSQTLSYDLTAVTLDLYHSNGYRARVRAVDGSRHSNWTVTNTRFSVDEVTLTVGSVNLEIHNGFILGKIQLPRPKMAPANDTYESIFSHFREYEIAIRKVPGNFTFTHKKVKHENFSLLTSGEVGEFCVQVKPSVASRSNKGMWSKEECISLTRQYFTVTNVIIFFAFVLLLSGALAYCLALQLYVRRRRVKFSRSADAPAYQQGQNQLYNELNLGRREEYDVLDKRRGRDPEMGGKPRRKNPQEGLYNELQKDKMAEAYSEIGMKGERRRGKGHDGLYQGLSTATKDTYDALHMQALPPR
Chain of AA-SR-122 (SR-122), IL10RB ECD-CD28 TM-CD3z ICD (chain, as listed by the source limits assumed, form in doubt): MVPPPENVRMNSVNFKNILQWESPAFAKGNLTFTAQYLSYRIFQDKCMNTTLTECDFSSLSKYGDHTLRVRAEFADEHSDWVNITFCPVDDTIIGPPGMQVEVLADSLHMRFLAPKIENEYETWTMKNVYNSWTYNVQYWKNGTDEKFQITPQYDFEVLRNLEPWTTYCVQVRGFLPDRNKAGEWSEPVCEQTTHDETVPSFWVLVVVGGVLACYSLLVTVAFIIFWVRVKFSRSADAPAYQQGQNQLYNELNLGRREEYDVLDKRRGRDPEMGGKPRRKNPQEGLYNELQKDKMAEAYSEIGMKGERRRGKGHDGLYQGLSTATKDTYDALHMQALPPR
Chain of AA-SR-111 (SR-111), PD1 ECD-PD1 TM-CD3z ICD (chain, as listed by the source limits assumed, form in doubt): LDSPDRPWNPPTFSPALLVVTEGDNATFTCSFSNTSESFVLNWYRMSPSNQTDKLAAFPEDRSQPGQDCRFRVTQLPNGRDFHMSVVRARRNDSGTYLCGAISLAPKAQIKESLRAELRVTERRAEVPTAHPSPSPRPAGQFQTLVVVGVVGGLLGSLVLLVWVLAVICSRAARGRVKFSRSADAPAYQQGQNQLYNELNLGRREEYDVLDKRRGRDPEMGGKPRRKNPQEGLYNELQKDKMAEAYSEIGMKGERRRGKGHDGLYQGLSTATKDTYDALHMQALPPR

In [1], anti-IL-10RA mAb clone 37607 (antibody) gave a CD69, fold-change of MFI over no stimulation, High (10 ug/mL) of 14.3 fold; a CD69, fold-change of MFI over no stimulation, Low (0.4 ug/mL) of 2.2 fold; a CD69, fold-change of MFI over no stimulation, Med. (2 ug/mL) of 7.9 fold; a GFP, fold-change of MFI over no stimulation, High (10 ug/mL) of 5.4 fold. In addition, in [1], the GFP, fold-change of MFI over no stimulation, Low (0.4 ug/mL) is 1.1 fold and the GFP, fold-change of MFI over no stimulation, Med. (2 ug/mL) was 2.9 fold. In experiment [2], this substance had a CD69, fold-change of MFI over no stimulation, High (10 ug/mL) of 56.8 fold; a CD69, fold-change of MFI over no stimulation, Low (0.4 ug/mL) of 4.9 fold; a CD69, fold-change of MFI over no stimulation, Med. (2 ug/mL) of 29.5 fold; a GFP, fold-change of MFI over no stimulation, High (10 ug/mL) of 11.4 fold. Moreover, in experiment [2], the GFP, fold-change of MFI over no stimulation, Low (0.4 ug/mL) came to 0.8 fold and the GFP, fold-change of MFI over no stimulation, Med. (2 ug/mL) is 3.3 fold.

Consider anti-IL-10RB mAb clone 90220 (antibody), for which, in [3], the CD69, fold-change of MFI over no stimulation, High (10 ug/mL) stood at 108 fold; the CD69, fold-change of MFI over no stimulation, Low (0.4 ug/mL) was 32.2 fold; the CD69, fold-change of MFI over no stimulation, Med. (2 ug/mL) is 86.1 fold; the GFP, fold-change of MFI over no stimulation, High (10 ug/mL) turned out to be 13.8 fold. Moreover, in [3], the GFP, fold-change of MFI over no stimulation, Low (0.4 ug/mL) stood at 2.9 fold and the GFP, fold-change of MFI over no stimulation, Med. (2 ug/mL) was 9.3 fold. Further, in experiment [4], the CD69, fold-change of MFI over no stimulation, High (10 ug/mL) is 115 fold; the CD69, fold-change of MFI over no stimulation, Low (0.4 ug/mL) turned out to be 70.1 fold; the CD69, fold-change of MFI over no stimulation, Med. (2 ug/mL) was found to be 118 fold; the GFP, fold-change of MFI over no stimulation, High (10 ug/mL) was 8.2 fold. In [4], the GFP, fold-change of MFI over no stimulation, Low (0.4 ug/mL) is 6.2 fold and the GFP, fold-change of MFI over no stimulation, Med. (2 ug/mL) was found to be 12.5 fold.

Regarding anti-PD-1 mAb clone EH12.2H7 (antibody), in experiment [5], the CD69, fold-change of MFI over no stimulation, High (10 ug/mL) is 37.6 fold; the CD69, fold-change of MFI over no stimulation, Low (0.4 ug/mL) is 1.2 fold; the CD69, fold-change of MFI over no stimulation, Med. (2 ug/mL) was 1.9 fold; the GFP, fold-change of MFI over no stimulation, High (10 ug/mL) stood at 5.8 fold. In experiment [5], the GFP, fold-change of MFI over no stimulation, Low (0.4 ug/mL) came out at 1.3 fold and the GFP, fold-change of MFI over no stimulation, Med. (2 ug/mL) worked out at 1.4 fold. In experiment [6], the CD69, fold-change of MFI over no stimulation, High (10 ug/mL) amounted to 27.3 fold; the CD69, fold-change of MFI over no stimulation, Low (0.4 ug/mL) came to 1.1 fold; the CD69, fold-change of MFI over no stimulation, Med. (2 ug/mL) came to 1.7 fold; the GFP, fold-change of MFI over no stimulation, High (10 ug/mL) came out at 5.5 fold. In addition, in experiment [6], the GFP, fold-change of MFI over no stimulation, Low (0.4 ug/mL) was 0.9 fold and the GFP, fold-change of MFI over no stimulation, Med. (2 ug/mL) was 1.2 fold.

On to “anti-TGF-BR2 mAb clone W17055E (antibody)”, for which, in experiment [7], the CD69, fold-change of MFI over no stimulation, High (10 ug/mL) was found to be 2 fold; the CD69, fold-change of MFI over no stimulation, Low (0.4 ug/mL) is 1.3 fold; the CD69, fold-change of MFI over no stimulation, Med. (2 ug/mL) was determined as 1.5 fold; the GFP, fold-change of MFI over no stimulation, High (10 ug/mL) stood at 1 fold. For the same substance, in experiment [7], the GFP, fold-change of MFI over no stimulation, Low (0.4 ug/mL) turned out to be 0.8 fold and the GFP, fold-change of MFI over no stimulation, Med. (2 ug/mL) was 0.9 fold. In experiment [8], this substance had a CD69, fold-change of MFI over no stimulation, High (10 ug/mL) of 88.2 fold; a CD69, fold-change of MFI over no stimulation, Low (0.4 ug/mL) of 2.2 fold; a CD69, fold-change of MFI over no stimulation, Med. (2 ug/mL) of 25.2 fold; a GFP, fold-change of MFI over no stimulation, High (10 ug/mL) of 5 fold. In addition, in [8], the GFP, fold-change of MFI over no stimulation, Low (0.4 ug/mL) was 0.9 fold and the GFP, fold-change of MFI over no stimulation, Med. (2 ug/mL) was determined as 2.9 fold.

In the case of anti-gp130 mAb clone 28126 (antibody), in experiment [9], the CD69, fold-change of MFI over no stimulation, High (10 ug/mL) was determined as 64.1 fold; the CD69, fold-change of MFI over no stimulation, Low (0.4 ug/mL) is 1.8 fold; the CD69, fold-change of MFI over no stimulation, Med. (2 ug/mL) is 40.7 fold; the GFP, fold-change of MFI over no stimulation, High (10 ug/mL) came out at 3 fold. In [9], the GFP, fold-change of MFI over no stimulation, Low (0.4 ug/mL) amounted to 0.5 fold and the GFP, fold-change of MFI over no stimulation, Med. (2 ug/mL) is 3.9 fold. In [10], this substance registered a CD69, fold-change of MFI over no stimulation, High (10 ug/mL) of 123 fold; a CD69, fold-change of MFI over no stimulation, Low (0.4 ug/mL) of 1.1 fold; a CD69, fold-change of MFI over no stimulation, Med. (2 ug/mL) of 22 fold; a GFP, fold-change of MFI over no stimulation, High (10 ug/mL) of 6.3 fold. In experiment [10], the GFP, fold-change of MFI over no stimulation, Low (0.4 ug/mL) was 0.5 fold and the GFP, fold-change of MFI over no stimulation, Med. (2 ug/mL) was 2.6 fold.

Source of the values: patent US20260055162A1.
